The nature of this data set: soluble on expression in E. coli; label from the status in PepcDB or PDB records.
Turning to “MLGMHFTPVEVFHRYIMPQIRDHLNDYLWVDMFCGEGNLILPMLDYIDRDRRGEFFRDHIMCFDIDESAVERSIENAMKYGIPQEMARRNIRTRDTLMDYPVLSGRYPVFHITNPPYLYLGYIRKRKDARRHQEYFEGQNDGYQDLYQIAMMNDLRHGIGNMIYIIPSNFFFSDAGTRKIREDFLKIYRIGSCYIFERRIFPSTGTNVMILSFQRSQSPVESIEFDAIRINKHEEKKRYVLRSENNFKPDNEYQDYIRAHFRPDHPVVKFYLTYDEIGKNPGNNRVVLVNSKEYRHGEYERETFSVNDDLYARIKSNPLYVRTVDKGTREGRSGIYSIIRDFGADGIFVKGPTYRTSPIQIFIDPPLSANEALKLMEIFNRTLNDLRERSDSDFMTTYKYSDSAAYVRKYLGLKQVRGIMSTISLEDLKDGASSTDL”, the “soluble on expression in E. coli” value is listed as “not soluble”.
The result for “MLSSQAYDIAIVGGGMVGLATAIGLAQADLNVVVIDAGHTEAVSGEPRLRVSAINKASQRLLEHLGAWHYVDASRATPYQKMAVWDKDGFGKIAFDASSISEPSLGAIIENDAISYALAKRASEFDNITHIENQRLERIAFGEREAWLTLANSADAEIESVSAALVIAADGANSWVREQCKIPLTFWDYGHHAIVATIRSEMPHLATARQVFLQDGPLAFLPLYEDNLCSIVWSVPPERATELLAMDKVQFERNLTAAFDGRLGICKLESERQAFPLRMRYARHFARHRLVLAGDAAHTIHPLAGQGVNLGFLDAASIIEVISELQQAGKDIGDYAELRALERWRKADAMEMIAAMEGFKRLFEGSNPVKKAIRDLGLNLVDNVAGLKTVFMQQAMGNKSSLPKLCRLEHHHHHH” reads “soluble”; that for “MGSDKIHHHHHHLKKQAVVIGAGLAGMSAAIRLAGDGYEVTMLEQNGNVGGKLNQRSGQGFTFDTGPSILTMPWVLEQLFTSVHRRLDDYLEIERIEPQWRTFFEDGTQLDVKGDLPGMLEEFKKVSDQADFVELFSYSKKMYDLCLDSFYKYSLEDLKDLKKYHTMSELLKMDPLNTVASGTKKHLNNKYLEQLFNYMVMYVGSNPYEAPAVFNQMIYVQMGLGIYYVKGGMYNIARAMKTVLDELRVTIHVNTPVARVVTEGKRAIGVETTDGTFYPADVVVSNLEVIPTYQHLISEKKGPKQAKKLNQSFVPSVSGLVLLLGVNREYKDLKHHNFFFSDDPEREFAQMFKDGVPPEDPTIYVGVSSKSDASQAPEGKDNLFVLTHVPPLTKQDGKTDWDAYREVVLDKLERMGLTDLRESIEFEYRFTPEDLKSLYGPNGGSIYGVAADRKKNGGFKIPSKSDLYEGLYFVGGSTHPGGGVPMVTLSGQLTADLIQKHEKVKA”, “not soluble”.
The result for “MTYDYVIVGGGIVGVSTGWQLKRRYPEKSVLLIEKEAGFSRHQTGHNSGVIHAGVYYAPGSLKADFCKRGVERTLAFCAQHNIPVENCGKLLVATNEQELERMHALYDRCLQNQIDVEKLDAAQLKLAEPNIRGLGAILVKATSIVNYRLVTEKMAEAFMQLGGDVKIGTEVVGLEETPSSITLTCQQKNQRVSYQAKFLVTCSGLMADRLTKMLGLPTDFQIIPYRGEYYRLAPKHNQVVRHLIYPIPDPELPFLGVHLTRMIDGCVTVGPNAVQGFKREGYGKWNVSLRDVWEMVCFPGFWKVSAKHFKTGMVEMKNSWWKAGYLQLVRKYCPSIELTDLEPYPAGIRAQAVLSDGTLVHDFLFAESPRSLHVCNAPSPAATSAMPIGEYLCDKIAEKSLALEHHHHHH” reads “soluble”; that for “MSDITISRPEVVNGHTDVICSTSIRHILAVRKSTLLQIDTLIRQLAEISVLTESIGGKTAPDWAMKQDFRCGCWLMEKPETAMKAITRNLDREIWRDLMQRSGMLSLMDTQARDTWYRSLEYDNFPEISEANILSTFEQLHQNKDEVFERGVINVFRGLNWNYKTNCPCKFGSKIIVNNLVRWDRWGFHLITGQQADRLADLERMLHLFSGKPIPDNRGNITLRLDDHIQSVQGKESYEDEMFSIRYFKKGSAHITFRKPELVDRLNDIIAKHYPDMLAV”, “soluble”; that for “MRAQMKQYNCHEGALPFTKSYLLRPLFNAFLMSPKPFHTTEACIGCKKCEKVCPVGNITVTDRPVWGGNCTQCLACYHVCPVHAVEYGKMTGLEHHHHHH”, “not soluble”.
As to “AIAAQEENKRLVVVVPNEMTVPSRRAFTSEDEAWKSYLENPLTAATKAMMSINGDEDSVAALGILYDYYKVPKEKRLLPVHKLPEDHEKSRISQDGLESAENRIHVLKSLPVNLSLNPDSENKQDLFGTVPAEDGVVATVKPEVYAQSFSSHHQQLHYHRTPYHPHLQDSVSVSHDRYMKDDQCSTPDSTFEDSYPEDPMRYRVPTTPAAEDFTHEQAGLNMFQYNIEASRSVREKAADGPMVYLNKGQFYGITLSETGANKGLRHPISKVRTVVMVVFGQEKCRDEQLKHWNYWHTRQHTAKQRVLDIADYKESFNTIGNIEEIAYNAVSFTWDPAAVHKSFCASVILL”, the “soluble on expression in E. coli” value is given as “soluble”.
The result for “RRNDDAGMIIPSFGISYDDQYDLIDEIERISKLTDVDEIKKSMDAIDGKKMDFDLGGVVAVGIPNKFLSATVYGKLYTESFVQPNVDTSGADPLTDSYVQGVSIGVAEAGVSLAKYTNFMNQHLSFGITPKLQRIYTYSYATSFKNFDTKDLREHETAETMFNLDAGALWFFGPYRLGISAKNLIGRDVKTKSFQYNTDTIQSYEYSMRPVYTVGAGIVADYFTMSVDYDLNEEKRFSSFDDNTQMIRAGFEIDILRQMALRGGYMKNLARSNDEGTITAGIGLSPLNLIELDISARYTNENAMGASINFLATY” reads “not soluble”; that for “MSLKNTTHFIVFDIERNFRPYKSDDPSEIVDIGAVKIEASTMKVIGEFSELVKPGARLTRHTTKLTGITKKDLMNVEKFPQIIERFIQFIGEDSIFVTWGKEDYRFLVHDCTLHGVDCPCMEKERRIDLQKFVFQAYEELFEHTPSLQSAVEQLGLTWEGKQHRALADAENTANILLKAYSERDITKRYKRHGELELVENGKLTEKAKKKMRKWVFKEMRKNTERPFAWSTFESSDTWESITERYYISEPTIELLKKHFRTAVRKAERRIRYLAEMEKNAEVKEGHHHHHH”, “soluble”; that for “MGHHHHHHHHHHSSGHIEGRHMEANGLGPQGFPELKNDTFLRAAWGEETDYTPVWCMRQAGRYLPEFRETRAAQDFFSTCRSPEACCELTLQPLRRFPLDAAIIFSDILVVPQALGMEVTMVPGKGPSFPEPLREEQDLERLRDPEVVASELGYVFQAITLTRQRLAGRVPLIGFAGAPWTLMTYMVEGGGSSTMAQAKRWLYQRPQASHQLLRILTDALVPYLVGQVVAGAQALQLFESHAGHLGPQLFNKLALPYIRDVAKQVKARLREAGLAPVPMIIFAKDGHFALEELAQAGYEVVGLDWTVAPKKARECVGKTVTLQGNLDPCALYASEEEIGQLVKQMLDDFGPHRYIANLGHGLYPDMDPEHVGAFVDAVHKHSRLLRQN”, “soluble”.
The result for “MSLALITLRQRNNKVEVRVFDTGIGIDADKQKAIFTDFYRIQDSDEAGVGLGLGVVRRLTEQMHATIDVSSVKRKGSCFILNMRIGSPVTESNVTFNKVKQTLSGLNVLCVDDKNENLDALETLLTRWEVNVVMANTYESALTLLASNKHPSPDVLLIDYQLDKDQDGLSLIKDIKAQVGKHIPSAIVTALQDQELKETCLSQGIQFLNKPLKPAKLRALLQSLAKQKSEGHHHHHH” reads “not soluble”; that for “MEQDINNQTGKKIFLNEECFLELDKLPQHVSVLGVSGFGKSNILLHFLKYAIDNDHPLIFVNGKGDKELITQFEHYQTSAKQLSPEDGFDTVKLVALKNTSAKIWSLDDRIATIKYNPFK”, “soluble”.
“ICNKYKNINVNMKKNNDDTWTDLVKNSSDINKGVLLPPRRKNLFLKIDESDICKYKRDPKLFKDFIYSSAISEVERLKKVYGEAKTKVVHAMKYSFADIGSIIKGDDMMENNSSDKIGKILGDGVGQNEKRKKWWDMNKYHIWESMLSGYKHAYGNISENDRKMLDIPNNDDEHQFLRWFQEWTENFCTKRNELYENMVTACNSAKCNTSNGSVDKKECTEACKNYSNFILIKKKEYQSLNSQYDMNYKETKAEKKESPEYFKDKCNGECSCLSEYFKDETRWKNPYETLDDTEVKNNCMCK”: the “soluble on expression in E. coli” value was “soluble”.
Regarding “MGRKSKNSSQSHAHGPVPGVYPTTTGEVELRADSFLPHAFEVYVNGVPSSHIAQDPEQLEYEYMRWIAAIVDWFVTTHSDPKKLRVTHLGGGACTLARYVCHRYPNARNTVVELDATLATLVREWFDLPRSPQLKIRVGDAWEVAQTFVPSSRDVIIRDVFAGNQTPRRLTTVEFFQQCHQALSPGGLYVANCGDHRDLNVAKAEVQGLREVFDHVACIADPTMLKGRRYGNIILIATDTQLPTDQEQQVLTRLLLGGGVPAQFKGGNWTKNFSSSSTARHD”, the “soluble on expression in E. coli” value is “not soluble”.
To “MFFNLRKNKKRLGWFNNGEVEAVAKDLGVAPSEVREMEARLAAQDSTFEAPAEDDDRDMAFTAPVYYLEDKQSDVAYSLEEDNWEDYTNNRLANAIATLDERSQHIVQSRWLADEKATLQELADTYQVSAERIRQLEKNAMKKLKDAVGDVL” belongs “not soluble”; to “MNLVETAQAIKTGKVSLGIELGSTRIKAVLITDDFNTIASGSYVWENQFVDGTWTYALEDVWTGIQQSYTQLAADVRSKYHMSLKHINAIGISAMMHGYLAFDQQAKLLVPFRTWRNNITGQAADELTELFDFNIPQRWSIAHLYQAILNNEAHVKQVDFITTLAGYVTWKLSGEKVLGIGDASGVFPIDETTDTYNQTMLTKFSQLDKVKPYSWDIRHILPRVLPAGAIAGKLTAAGASLLDQSGTLDAGSVIAPPEGDAGTGMVGTNSVRKRTGNISVGTSAFSMNVLDKPLSKVYRDIDIVMTPDGSPVAMVHVNNCSSDINAWATIFHEFAARLGMELKPDRLYETLFLESTRADADAGGLANYSYQSGENITKIQAGRPLFVRTPNSKFSLPNFMLTQLYAAFAPLQLGMDILVNEEHVQTDVMIAQGGLFRTPVIGQQVLANALNIPITVMSTAGEGGPWGMAVLANFACRQTAMNLEDFLDQEVFKEPESMTLSPEPERVAGYREFIQRYQAGLPVEAAAGQAIKYLEHHHHHH”, “soluble”.
The result for “MGSDKIHHHHHHAALYARWAPTHSAAPAAEQQRKVLFWYDPMYPNTRFDKPGKSPFMDMDLVPKYADEEHAAAGAPGVRIDPTQTQNLGVKTAAVTRGPLRYAQTFPANISYNEYQYVIMQARAAGFINKVYPLTVGDKVKQGTPLLELTIPDWVEAQSEYLLLQETGGTATQVEGILERLRLAGMPDDDIRRLKATRKIQTRFTLTAPIDGVITAFDLRAGMNIAKDNVVAKIQGMDPVWVSVAVPESIAWLIKDASQFSIQVPAWPGKTFRISKWTLLPSVDSATRTLQLRLQVNNPDEALKPGMNAYLQLTSESAPMLLIPSKALIDSGSEQRVITVDNEGRFVPKRVQVFHESAGVTAIRSGLQEGEKVVARGLFLIDSEANIAGALERMRAQAPDAAASAAHAH” reads “not soluble”.
To “MKDSKFPYYFSNALLMLVPRFVYRAQAKRLLSTLTEAEKQYCLERVNYYNKCGQPFTVDSREQSYAKIGEFKKTKGWTYFFDTRQVIRYFPSEFTFNYINGDVTHIPNVPSFIKSRPIHGDNQNSVVLKLNQIRHFKFVDDEMSYHDKKDMVAWRGVGFQPHRCKVIQAFYDHPRCNIGQTRPQEGQPWEKGFMSIEEQLQYKFLLCIEGNDVATNLKWAMSSNSLVIMSKPKYETWFMEGKLEAGIHYVEVQDDYSDLPEKMDYYLANEQEALAIIENAHQWVEQFKDKRKERLISLMVADKYFTLSHQQLEHHHHHH” belongs “soluble”.
For the sequence “MGHHHHHHSHMSNLTPESSPELAKKSWFGNFISLEKEEQIFVVIKDKPLSSIKADIVHAFLSIPSLSHSVISQTSFRAEYKATGGPAVFQKPVKFQVDITYTEGGEAQKENGIYSVTFTLLSGPSRRFKRVVETIQAQLLSTHDPLRPSTCQTPLTVWK”, the “soluble on expression in E. coli” value is “not soluble”.
